Data published in paper PMC8606822, “Novel dTDP-L-Rhamnose Synthetic Enzymes (RmlABCD) From Saccharothrix syringae CGMCC 4.1716 for One-Pot Four-Enzyme Synthesis of dTDP-L-Rhamnose” (Frontiers in Microbiology, 2021).

Experiments:
Ss-RmlD = target: T1, Ss-RmlD (Saccharothrix syringae, UniProt A0A5Q0HAF2); assay: one-pot reaction with Ss-RmlABC; product yield by HPLC; format: biochemical; conditions: pH 8.5, 30 °C; dTDP-4-keto-rhamnose made in situ
T1 construct: gene rfbD
T1 sequence (A0A5Q0HAF2 1-297): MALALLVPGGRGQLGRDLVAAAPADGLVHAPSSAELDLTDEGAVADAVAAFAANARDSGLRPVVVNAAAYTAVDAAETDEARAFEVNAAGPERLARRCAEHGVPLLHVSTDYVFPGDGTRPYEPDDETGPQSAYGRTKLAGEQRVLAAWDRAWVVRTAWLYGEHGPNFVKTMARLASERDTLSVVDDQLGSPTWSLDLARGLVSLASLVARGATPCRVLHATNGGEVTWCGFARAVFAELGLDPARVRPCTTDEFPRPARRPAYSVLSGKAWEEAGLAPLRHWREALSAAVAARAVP

purified protein = substrate: Cc1cn([C@H]2C[C@H](O)[C@@H](COP(=O)(O)OP(=O)(O)O[C@H]3O[C@H](CO)[C@@H](O)[C@H](O)[C@H]3O)O2)c(=O)[nH]c1=O; assay: purified protein; format: biochemical, Saccharothrix syringae; conditions: optimal conditions (50 °C, pH 7.5, 0.02 mM NAD+)
[1] = substrate: Cc1cn([C@H]2C[C@H](O)[C@@H](COP(=O)(O)OP(=O)(O)OP(=O)(O)O)O2)c(=O)[nH]c1=O; assay: malachite green PPi release assay with inorganic pyrophosphatase; format: biochemical, Saccharothrix syringae; conditions: 1 mM Glc-1-P, optimal conditions (37 °C, pH 9.0, 2.5 mM Mg2+)
[2] = substrate: O=P(O)(O)O[C@H]1O[C@H](CO)[C@@H](O)[C@H](O)[C@H]1O; assay: as above; format: biochemical, Saccharothrix syringae; conditions: 1 mM dTTP, optimal conditions (37 °C, pH 9.0, 2.5 mM Mg2+)

NC(=O)C1=CN([C@@H]2O[C@H](COP(=O)(O)OP(=O)(O)OC[C@H]3O[C@@H](n4cnc5c(N)ncnc54)[C@H](OP(=O)(O)O)[C@@H]3O)[C@@H](O)[C@H]2O)C=CC1 [NADPH]
one-pot reaction with Ss-RmlABC; product yield by HPLC (Ss-RmlD): NADPH was an essential cofactor for the final step of reduction catalyzed by Ss-RmlD

B1: Ss-RmlB (Saccharothrix syringae) (protein)
chain: MRVLVTGGAGFIGSHYVRELVGGSYPAYADAEVVVLDKLTYAGNEANLAPVADSPRLTFVRGDICDRELVVGVMRGVDVVVHFAAESHVDRSITGSADFVLTNVLGTQVLLQAALEAGVAKFVHVSTDEVYGSIAEGSWTEDHVLEPNSPYSASKASSDLLARAFHRTHGLPVCVTRCSNNYGPYQFPEKVIPLFVTNLVDGRKVPLYGDGLNVRDWLHVDDHCRGIQLVLEGGRGGEIYNIGGGTELTNRELTARLLEATGRDWDSFVEPVEDRKGHDRRYSVDITKISTELGYAPRVDFAEGLAATVRWYRENRAWWEPLKQRAALTG
Km (purified protein): 98.60 µM
kcat (purified protein): 11.2 s⁻¹

B2: Ss-RmlA (Saccharothrix syringae) (protein)
chain: MKGIILAGGSGTRLHPITQAVSKQLLPVYDKPMVYYPLSVLMLAGIREILLISTPTDLPLFRRLLGDGSQFGLSVSYAEQAQPNGLAEAFVIGADFVGDDDVSLVLGDNIFYGQGFSRLLQHHAATLDGCVLFGYPVKDPERYGVGEVDATGRLVSIEEKPAAPKSNKAITGLYFYDNQVVDIARNLRPSARGELEITDVNLTYLRQGRAHLVDLGRGFAWLDTGTHDSLLEAGQFVQVLEHRQGVRIACPEEIALRMGFITADECYALGEKLAKSGYGQYVMYVAREVR
Km [1]: 49.56 µM
kcat [1]: 5.39 s⁻¹
Km [2]: 117.30 µM
kcat [2]: 3.46 s⁻¹
